± gives the standard error. Variants at the floor of the assay were thinned out.
B1: glmS ribozyme (parent)
chain: AUAAAAGCGCCAGAACUACAGAAAUGUAGUUGACGAGGAGGAGGUUUAUCGAAUUUUCGGCGGAUGCCUCCAAA

How the values were obtained:
Conditions in all cases: with glucosamine-6-phosphate
glucosamine-6-phosphate [1] = variants of: B1; assay: self-cleavage kobs at 40 uM GlcN6P; higher = faster cleavage; RNA array
Method in brief: (§1)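 Glucosamine-6-phosphate in HEPES/KCl/Mg(OAc)2 buffer, at 40 μM to 10 mM, was flowed over barcoded ribozyme variants transcribed in situ by E. coli RNA polymerase on sequenced MiSeq chips. Tracking was through a hybridised Cy3 probe at 37 °C. kobs, kcat and KM came from exponential decay fits and weighted Michaelis–Menten fits of normalised per-tile medians.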

glucosamine-6-phosphate [2] = variants of: B1; assay: self-cleavage kobs at 2500 uM GlcN6P; higher = faster cleavage; RNA array
Method in brief: as §1

glucosamine-6-phosphate [3] = variants of: B1; assay: self-cleavage kobs at 10000 uM GlcN6P; higher = faster cleavage; RNA array
Method in brief: as §1

glucosamine-6-phosphate [4] = variants of: B1; assay: self-cleavage kobs at 160 uM GlcN6P; higher = faster cleavage; RNA array
Method in brief: as §1

glucosamine-6-phosphate [5] = variants of: B1; assay: self-cleavage kobs at 640 uM GlcN6P; higher = faster cleavage; RNA array
Method in brief: as §1

Variant | self-cleavage kobs at 40 uM GlcN6P (glucosamine-6-phosphate [1]) | self-cleavage kobs at 2500 uM GlcN6P (glucosamine-6-phosphate [2]) | self-cleavage kobs at 10000 uM GlcN6P (glucosamine-6-phosphate [3]) | self-cleavage kobs at 160 uM GlcN6P (glucosamine-6-phosphate [4]) | self-cleavage kobs at 640 uM GlcN6P (glucosamine-6-phosphate [5])
U31C G32A G60U | < 1e-05 s⁻¹ | < 1e-05 s⁻¹ | < 1e-05 s⁻¹ |  | 
C10U G59C C68A | < 1e-05 s⁻¹ |  | < 1e-05 s⁻¹ |  | 
G29A U31C G35U G66A | < 1e-05 s⁻¹ |  |  |  | 
C16U A42G C61G | < 1e-05 s⁻¹ |  |  |  | 
U31G C50G C67U | 8.62e-05 ± 1.8e-05 s⁻¹ |  | 0.000109 ± 2.3e-05 s⁻¹ |  | 
U30A U54A G59U G62U C67U C70U | < 1e-05 s⁻¹ |  | < 1e-05 s⁻¹ |  | 
A14U C34G A42U U45C A53C | < 1e-05 s⁻¹ |  | < 1e-05 s⁻¹ |  | 
G29U A52U U65A | < 1e-05 s⁻¹ |  |  |  | 
A53C G62A | < 1e-05 s⁻¹ |  | < 1e-05 s⁻¹ |  | 
G9U A33G | < 1e-05 s⁻¹ | < 1e-05 s⁻¹ |  | < 1e-05 s⁻¹ | < 1e-05 s⁻¹
G38A G43U | < 1e-05 s⁻¹ |  | < 1e-05 s⁻¹ | < 1e-05 s⁻¹ | < 1e-05 s⁻¹
G35C C50A | < 1e-05 s⁻¹ | < 1e-05 s⁻¹ | < 1e-05 s⁻¹ | < 1e-05 s⁻¹ | < 1e-05 s⁻¹
G7A A48U U49G | < 1e-05 s⁻¹ |  | < 1e-05 s⁻¹ |  | 
A14U G51A U57C G60U A64G U65G | < 1e-05 s⁻¹ |  |  |  | 
C16G G40U U65C | < 1e-05 s⁻¹ |  |  |  | < 1e-05 s⁻¹
C34U G40U C50U | < 1e-05 s⁻¹ |  | < 1e-05 s⁻¹ |  | < 1e-05 s⁻¹
G60U G62U | < 1e-05 s⁻¹ | < 1e-05 s⁻¹ | < 1e-05 s⁻¹ | < 1e-05 s⁻¹ | < 1e-05 s⁻¹
U56C U57G | < 1e-05 s⁻¹ | 2.91e-05 ± 1.2e-05 s⁻¹ | 8.26e-05 ± 2.1e-05 s⁻¹ |  | 
A14G C34A G38U | < 1e-05 s⁻¹ |  |  |  | 
U56G C71U | 0.000303 ± 4.6e-05 s⁻¹ | 0.00323 ± 0.00056 s⁻¹ | 0.0163 ± 0.0024 s⁻¹ | 0.000762 ± 0.00016 s⁻¹ | 0.00222 ± 0.00042 s⁻¹
A14U G62A | < 1e-05 s⁻¹ | < 1e-05 s⁻¹ | < 1e-05 s⁻¹ |  | < 1e-05 s⁻¹
G9A A14C A48C | < 1e-05 s⁻¹ |  |  |  | 
A6C G37C A39G G40U G41U | < 1e-05 s⁻¹ | < 1e-05 s⁻¹ |  | < 1e-05 s⁻¹ | < 1e-05 s⁻¹
G38U A52U U57G A64G | < 1e-05 s⁻¹ |  | < 1e-05 s⁻¹ |  | 
U30C G62C | < 1e-05 s⁻¹ |  | < 1e-05 s⁻¹ |  | < 1e-05 s⁻¹
C10U G38C | < 1e-05 s⁻¹ |  |  | < 1e-05 s⁻¹ | 
